Data on one molecule can be found in patent US20220251236A1 (Boehringer Ingelheim, published 2022).

The target in one test is T1, EGF3+4.
T1 construct: also called Hu DLL3 EGF3+4 on HEK293 cells
T1 membrane-anchored DLL3 subdomain construct: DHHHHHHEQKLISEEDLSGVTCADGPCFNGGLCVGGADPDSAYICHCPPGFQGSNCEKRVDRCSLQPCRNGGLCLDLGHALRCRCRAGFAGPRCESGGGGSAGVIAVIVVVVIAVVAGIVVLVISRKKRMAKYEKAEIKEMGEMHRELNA
Kind of test: flow cytometry on HEK293 cells expressing the DLL3 subdomain construct, 1.6 nM binder, PE anti-human secondary, control: secondary antibody only. An outline of the steps:
(§1)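 Binders tested on HEK293 cells displaying the DLL3 subdomain construct; bound molecules detected by flow cytometry using PE-conjugated anti-human secondary antibody. Negative control: cells with secondary antibody only.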
A general note: Flow cytometry measures light scatter and fluorescence of single cells or particles in a stream.

Another test concerns the target T2, EGF4+5.
T2 construct: also called Hu DLL3 EGF4+5 on HEK293 cells
T2 membrane-anchored DLL3 subdomain construct: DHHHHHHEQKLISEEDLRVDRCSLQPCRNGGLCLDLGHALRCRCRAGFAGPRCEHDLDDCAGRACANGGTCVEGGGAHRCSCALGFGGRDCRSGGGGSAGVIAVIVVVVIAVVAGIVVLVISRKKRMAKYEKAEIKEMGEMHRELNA
The test is described as above. An outline of the steps:
as §1

B1: DLL3#4/CD3#1 (bispecific antibody, human IgG1, kappa, lambda, L234A L235A)
chain 1: not shown
chain 2: EAVVTQEPSLTVSPGGTVTLTCRSSTGAVTTSNYANWVQEKPGQLPRGLIGGTNKRAPWVPARFSGSLLGGKAALTLSGAQPEDEAEYFCALWYSNLWVFGGGTKLTVLGQPKAAPSVTLFPPSSEELQANKATLVCLISDFYPGAVKVAWKADGSPVNTGVETTTPSKQSNNKYAASSYLSLTPEQWKSHRSYSCQVTHEGSTVEKTVAPAECSGGGGSEGKSSGSGSESKSTEGKSSGSGSESKSTGGGGSEVQLVESGGGLVQPGGSLKLSCAASGFTFNTYAMNWVRQAPGKGLEWVARIRSKYNNYATYYADSVKDRFTISRDDSKNTAYLQMNNLKTEDTAVYYCVRHGNFGNSYVSWFAYWGQGTLVTVSAASTKGPSVFPLAPSSKSTSGGTAALGCLVKDYFPEPVTVSWNSGALTSGVHTFPAVLQSSGLYSLSSVVTVPSSSLGTQTYICNVNHKPSNTKVDKRVEPKSCDKTHTCPPCPAPEAAGGPSVFLFPPKPKDTLMISRTPEVTCVVVDVSHEDPEVKFNWYVDGVEVHNAKTKPREEQYNSTYRVVSVLTVLHQDWLNGKEYKCKVSNKALPAPIEKTISKAKGQPREPQVYTLPPSREEMTKNQVSLSCAVKGFYPSDIAVEWESNGQPENNYKTTPPVLDSDGSFFLVSKLTVDKSRWQQGNVFSCSVMHEALHNRFTQKSLSLSPG
notes: Heterodimer of one DLL3 chain and one CD3 chain (scFab-Fc, knob-in-hole)
Regarding B1, the binding result in the test with EGF3+4 and with EGF4+5 was “binds” each time.
